From patent US20250381223A1 (UTC THERAPEUTICS SHANGHAI, published 2025)

Target: T1, BCMA-Fc recombinant protein (human, UniProt Q02223 1-54)
T1 construct: construct not described; not shown: Fc part
T1 sequence (looked up): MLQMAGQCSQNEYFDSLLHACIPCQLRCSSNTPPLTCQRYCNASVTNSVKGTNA
Assay: flow cytometry; CAR-T cells stained with 5 µg/mL BCMA-Fc, anti-human IgG Fc
Description: (5) Screening for functional anti-BCMA scFv in T cells: the anti-BCMA scFv was constructed into a bicistronic lentiviral CAR expression vector containing an IRES-truncated EGFR (tEGFR) expression cassette. The lentivirus was produced by transient transfection of 293T cells, followed by purification by ultracentrifugation and concentration. T cells were transduced with the CAR lentivirus to generate CAR-T cells, which were then cultured for 10 days. 10 days after lentivirus transduction, CAR-T cells were collected and stained with 5 μg/mL CD19-Fc protein (Ctrl Fc protein) or BCMA-Fc recombinant protein for 30 min at 4° C. After washing, the CAR-T cells were stained with the anti-human IgG Fc and anti-EGFR mAb. The samples were analyzed using a flow cytometer.

Binder | binding result
BCMA34 (scFv, On lentivirus-transduced T cells as CAR; also called anti-BCMA scFv BCMA34) scFv: QPGLTQPPSVSKGLRQTATLTCTGNSNNVGNQGAAWLQQHQGHPPKLLSYRNNNRPSGISERFSASRSGNTASLTITGLQPEDEADYYCSAWDSSLSARVFGGGTKLTVLGGGGSGGGGSGGGGSQVQLVQSGAEVKKPGASVKVSCKTSGYTFSNPFVHWVRQAPGQGLEWVGIINLSGGDTLYAQKFQGGVTMTRDTSTNTAYMELTSLTFEDTAVYYCARDQAGFGDSAYWGQGTLVTVSS | binds
BCMA32 (scFv, On lentivirus-transduced T cells as CAR; also called anti-BCMA scFv BCMA32) scFv: QSALTQPASVSGSPGQSITISCTGTSSDVGGYNYVSWYQQHPGKAPKLMIYDVSKRPSGVSNRFSGSKSGNTASLTISGLQAEDEADYYCSSYTSSSTVVFGGGTKLTVLGGGGSGGGGSGGGGSQVQLQESGAEVKKPGSSVKVSCKASGGTFSRYAISWVRQAPGQGLEWMGGIIPFFGTSDYAQKFQGRVTITADESTSTAYMDLSRLRSEDTAVYYCAVRVATTGTGFYYAMDVWGQGTTVTVSS | binds
BCMA28 (scFv, On lentivirus-transduced T cells as CAR; also called anti-BCMA scFv BCMA28) scFv: QSALTQPPSVSEAPRQRVTISCSGSSSNIGQNAVNWYQKLPGKAPKLLIYYNDLVSSGVSDRFSGSKSGTSASLAISGLQSEDEADYYCATWDDSLNGVVFGGGTKVTVLGGGGSGGGGSGGGGSQVQLVQSGPGLVKPSQTLSLTCAISGDSVSSNSAAWNWIRQSPSRGLEWLGRTYYRSKWYNDYAVSVKSRITINPDTSKNQFSLQLNSVTPEDTAVYYCARDYYYGMDVWGQGTTVTVSS | binds
BCMA31 (scFv, On lentivirus-transduced T cells as CAR; also called anti-BCMA scFv BCMA31) scFv: QSALTQPPSASGSPGQSVTISCTGTSSDVGTYNYVSWYQQHPGKAPKLMIYDVNQRPSGVPDRFSGSKSGNTASLTVSGLQAEDEADYYCSSYGGSNNLVFGGGTKVTVLGGGGSGGGGSGGGGSEVQLVESGGGLIQPGGSLRLSCAASGFTFSSYWMSWVRQSPGKGLEWVANIKPDGSDKYYVDSVKGRFTISRDNAKNSLDLQMNSLRGEDTAIYYCARGATTYGSWGQGTLVTVSS | binds
BCMA30 (scFv, On lentivirus-transduced T cells as CAR; also called anti-BCMA scFv BCMA30) scFv: DIQMTQSPSFLSASVGDRVTITCRASQGISSYLAWYQQKPGKAPKLLIYAASTLQSGVPSRFSGSGSGTEFTLTISSLQPEDFATYYCQQLNSYPPWTFGQGTKVEIKGGGGSGGGGSGGGGSQVQLVQSGAEVKKPGESLKISCKGSGYRFTSYWIGWVRQMPGKGLEWMGIIYPGDSDTRYSPPFQGQVTISADKSIDTAYLQWSSLKASDTAMYYCARLDASGSQRGGMDVWGQGTTVTVSS | binds
BCMA33 (scFv, On lentivirus-transduced T cells as CAR; also called anti-BCMA scFv BCMA33) scFv: QSALTQPPSASGSPGQSVTISCTGTSSDVGGYNYVSWYQQHPGKAPKLMIYEVSKRPSGVPDRFSGSKSGNTASLTVSGLQAEDEADYFCSSYAGSNNFVVFGGGTKLTVLGGGGSGGGGSGGGGSEVQLVESGGGLVQPGRSLRLSCAASGFTFDDYAMHWVRQAPGKGLEWVSGISWNSGSIGYADSVKGRFTISRDNAKNSLYLQMNSLRAEDTALYYCAKVGASAALGAFDIWGQGTMVTVSS | binds
